# Where a chain is given by its changes, count along the chain named.
# T1: human CD98hc (human, UniProt P08195 109-529)
# T1 construct: also called huCD98hc; CD98 heavy chain
# T1 sequence: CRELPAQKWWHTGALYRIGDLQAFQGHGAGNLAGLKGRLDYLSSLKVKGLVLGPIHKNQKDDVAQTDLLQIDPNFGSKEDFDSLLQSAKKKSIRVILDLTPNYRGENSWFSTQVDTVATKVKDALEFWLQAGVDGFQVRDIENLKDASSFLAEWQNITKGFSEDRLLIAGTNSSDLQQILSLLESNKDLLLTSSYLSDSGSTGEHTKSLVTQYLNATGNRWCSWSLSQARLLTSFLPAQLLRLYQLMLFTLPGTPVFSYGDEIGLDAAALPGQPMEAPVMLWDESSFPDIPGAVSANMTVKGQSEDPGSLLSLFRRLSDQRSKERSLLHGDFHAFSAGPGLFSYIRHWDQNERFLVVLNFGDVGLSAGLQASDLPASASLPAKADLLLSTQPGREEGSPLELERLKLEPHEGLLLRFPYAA
# T2: circularly permuted human TfR apical domain (human)
# T2 construct: TfR residues 326-379 stand N-terminal to 194-296, loop 297-325 deleted; also called huTfR Apical Domain
# T2 chain: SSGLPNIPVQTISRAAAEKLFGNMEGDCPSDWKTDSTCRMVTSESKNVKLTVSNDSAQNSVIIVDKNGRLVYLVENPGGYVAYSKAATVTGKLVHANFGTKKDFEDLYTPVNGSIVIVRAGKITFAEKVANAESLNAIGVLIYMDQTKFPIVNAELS
# B1: LLB2-18 (Fc fusion)
# chain: APELLGGPSVFLFPPKPKDTLMISRTPEVTCVVVDVSHEDPEVKFNWYVDGVEVHNAKTKPREEQYNSTYRVVSVLTVLHQDWLNGKEYKCKVSNKALPAPIEKTISKAKGQPREPQVYTLPPSRDELTKNQVSLTCLVKGFYPSDIVVLWNSRFALEQNVKTTPPVLDSDGSFFLYSKLTVDKSRWQQGQIFACNVLHEALHNHLTFKNLVLSPGK
# notes: Fc part only
# B2: LLB2-20 (Fc fusion)
# chain: B1 chain with A156V, Q159D, Q191A, L206H
# notes: Fc part only
# B3: LLB2-30 (Fc fusion)
# chain: B1 chain with V148A, R154Q, A156L, Q159N, V161Y, Q191N, L198Y, L206Y, V212Q
# notes: Fc part only
# B4: LLB2.10.8.14.3.N (Fc fusion)
# chain: B1 chain with V148A, A156V, Q159N, V161Y, Q191N, L198Y, L206R, V212R
# notes: Fc part only; changes read against LLB2-10-8
# B5: LLB2-17 (Fc fusion)
# chain: B1 chain with V148S, Q159D, V161T, Q191E, L206Y, V212A
# notes: Fc part only
# B6: LLB2-31 (Fc fusion)
# chain: B1 chain with V148A, R154Q, A156V, Q159N, V161Y, Q191N, L198Y, L206Y, V212A
# notes: Fc part only
# B7: LLB2.10.8.12.5.N (Fc fusion)
# chain: B1 chain with V148A, R154H, F155Y, A156E, Q159N, V161Y, Q191N, L198Y, L206Y, V212A
# notes: as for B4
# B8: LLB2-24 (Fc fusion)
# chain: B1 chain with V148E, S153T, A156V, Q159T, V161A, Q191E, L206F, V212A
# notes: Fc part only
# B9: LLS2.33.2 (Fc fusion)
# chain: APELLGGPSVFLFPPKPKDTLMISRTPEVTCVVVDVSHEDPEVKFNWYVDGVEVHNAKTKPREEQYNSTYRVVSVLTVLHQDWLNGKEYKCKVSNKALPAPIEKTISKAKGQPREPQVYTLPPSRDELTKNQVSLTCLVKGFYPSDIAVAWNSKFELENNYKTTPPVLDSDGSFFLYSKLTVDKSRWQQGNLFACNVWHEALHNHYTFKNLSLSPGK
# notes: Fc part only; also called LLB2.33.2
# B10: LLB2-23 (Fc fusion)
# chain: B1 chain with A156V, Q191E, L206Y
# notes: Fc part only
# B11: LLS2.33.8 (Fc fusion)
# chain: B9 chain with E156R
# notes: Fc part only; also called LLB2.33.8
# B12: LLS2.C.15 (Fc fusion)
# chain: B9 chain with A150K, K154R, E156Q
# notes: Fc part only; also called LLB2.C.15
# B13: LLB2.10.8.4.12.N (Fc fusion)
# chain: B9 chain with A150L, K154R, E156V, L192I, W198Y, Y206W, S212R
# notes: as for B4
# B14: LLB2.10.8.10.1.N (Fc fusion)
# chain: B9 chain with A150L, K154R, E156V, L192I, W198Y, S212K
# notes: as for B4
# B15: LLB2.C.3 (Fc fusion)
# chain: B9 chain with A150V, K154Q, F155Y, L192V
# notes: Fc part only
# B16: LLB2.10.8.10.3.N (Fc fusion)
# chain: B9 chain with A150L, K154R, E156V, L192I, W198Y, S212R
# notes: as for B4
# B17: LLB2.10.8.9.11.N (Fc fusion)
# chain: B9 chain with A150L, K154R, E156V, L192T, W198Y, S212A
# notes: Fc part only
# B18: LLB2-37 (Fc fusion)
# chain: B9 chain with A150L, K154Q, E156H, L192I, W198Y, S212L
# notes: Fc part only
# B19: LLS2.33.5 (Fc fusion)
# chain: B9 chain with A150Q, N152S, K154Q, F155Y, L192V
# notes: Fc part only; also called LLB2.33.5
# B20: LLB2.10.8.14.4.N (Fc fusion)
# chain: B9 chain with A150L, K154R, E156V, L192I, W198Y, Y206R, S212A
# notes: as for B4
# B21: LLS2.C.4 (Fc fusion)
# chain: B9 chain with K154R, L192I
# notes: Fc part only; also called LLB2.C.4
# B22: LLB2-21 (Fc fusion)
# chain: B1 chain with V148D, A156L, Q159T, V161T, Q191E, L206Y, V212K
# notes: Fc part only
# B23: LLB2.10.8.10.8.N (Fc fusion)
# chain: B9 chain with A150L, K154R, E156V, L192I, W198Y, S212H
# notes: as for B4
# B24: LLS2.43.5 (Fc fusion)
# chain: B9 chain with A150M, K154Q, F155Y, L192V, W198H
# notes: Fc part only; also called LLB2.43.5
# B25: 6.5.11.5.42.2.d1 (Fc fusion)
# chain: APELLGGPSVFLFPPKPKDTLMISRTPEVTCVVVDVSHEDPEVKFNWYVDGVEVHNAKTKPREEQYNSTYRVVSVLTVLHQDWLNGKEYKCKVSNKALPAPIEKTISKAKGQPREPQVYTLPPSRDELTKNQVSLTCLVKGFYPSDIAVEWFSNGSKETNYKTTPPVLDSDGSFFLYSKLTVDKSRWQQGNLFACEVMHEALHNHYTYKLLSLSPGK
# B26: 6.5.11.5.42.2.d3 (Fc fusion)
# chain: B25 chain with N154D, K157P
# B27: 6.5.11.5.42.2.d8 (Fc fusion)
# chain: B25 chain with N154D, G155A
# B28: 6.5.11.5.42.2.d4 (Fc fusion)
# chain: B25 chain with N154D, S156G
# B29: 6.5.11.5.42.2.d2 (Fc fusion)
# chain: B25 chain with N154D, S156Q
# B30: 6.5.11.5.42.2.d14 (Fc fusion)
# chain: B25 chain with S156Q
# B31: 6.5.11.5.42.2.d12 (Fc fusion)
# chain: B25 chain with N154D, K157P, T159N
# B32: 6.5.11.5.42.2.d9 (Fc fusion)
# chain: B25 chain with N154D, S156A
# B33: 6.5.11.5.42.2.d15 (Fc fusion)
# chain: B25 chain with N154F, S156Q
# B34: 6.5.11.5.42.2.d13 (Fc fusion)
# chain: B25 chain with N154D, K157P, T159N, L192V
# B35: 6.5.11.5.42.2.d10 (Fc fusion)
# chain: B25 chain with N154D, K157T
# B36: 6.5.11.5.42.2.d11 (Fc fusion)
# chain: B25 chain with N154D, T159S
# B37: 6.5.11.5.42.2.d7 (Fc fusion)
# chain: B25 chain with N154A
# B38: 6.5.11.5.42.2.d6 (Fc fusion)
# chain: B25 chain with N154F
# B39: LLB2-10-8.d20 (Fc fusion)
# chain: B9 chain with A150L, N152S, K154H, F155Y, L192V, W198Y, S212A
# notes: Fc part only
# B40: LLB2-10-8.d22 (Fc fusion)
# chain: B9 chain with A150L, N152S, L192V, W198Y, S212A
# notes: Fc part only
# B41: LLB2-10-8.d25 (Fc fusion)
# chain: B9 chain with A150L, K154R, E156Q, L192V, W198Y, S212A
# notes: Fc part only
# B42: LLB2-10-8.d21 (Fc fusion)
# chain: B9 chain with A150L, N152S, K154R, E156V, L192V, W198Y, S212A
# notes: Fc part only
# B43: LLB2-10-8.d23 (Fc fusion)
# chain: B9 chain with A150L, N152S, K154Q, F155Y, L192V, W198Y, S212A
# notes: Fc part only
# B44: LLB2-10-8.d24 (Fc fusion)
# chain: B9 chain with A150L, K154R, F155Y, E156V, L192V, W198Y, S212A
# notes: Fc part only
# B45: LLB2-10-8.d26 (Fc fusion)
# chain: B9 chain with A150L, K154R, E156V, L157P, L192V, W198Y, S212A
# notes: Fc part only
# Molecular target: T3, cyno CD98hc (cynomolgus monkey)
# T3 construct: also called cynomolgus CD98hc; cyCD98hc
# Test: SPR (Biacore)
# Outline: (§1)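 Engineered Fc polypeptides, made as Fc-Fab fusions with anti-BACE1 Fabs, were assessed for Kd toward CD98hc. Measurements were taken by surface plasmon resonance with a Biacore instrument, in a bivalent format or in a monovalent knob/hole format whose CD98hc-binding site sat on the knob chain alone.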
row,Kd,Binder
1,9100 nM,B1
2,5500 nM,B2
3,2000 nM,B3
4,1900 nM,B4
5,9200 nM,B5
6,2100 nM,B6
7,4700 nM,B7
8,6200 nM,B8
9,4500 nM,B9
10,2600 nM,B10
11,8200 nM,B11
12,2200 nM,B12
13,700 nM,B13
14,1800 nM,B14
15,3500 nM,B15
16,2000 nM,B16
17,4500 nM,B17
18,2800 nM,B18
19,6900 nM,B19
20,2360 nM,B20
21,2700 nM,B21
22,2300 nM,B22
23,2200 nM,B23
24,5900 nM,B24

# Molecular target: T1, human CD98hc
# Test: SPR (Biacore)
# Outline: as §1
row,Kd,Binder
1,1800 nM,B1
2,1200 nM,B2
3,450 nM,B3
4,270 nM,B4
5,2000 nM,B5
6,640 nM,B6
7,1500 nM,B7
8,1100 nM,B8
9,2000 nM,B9
10,500 nM,B10
11,2200 nM,B11
12,620 nM,B12
13,140 nM,B13
14,500 nM,B14
15,1000 nM,B15
16,490 nM,B16
17,1200 nM,B17
18,610 nM,B18
19,1700 nM,B19
20,350 nM,B20
21,700 nM,B21
22,420 nM,B22
23,650 nM,B23
24,1200 nM,B24

# Molecular target: T2, circularly permuted human TfR apical …
# Test: Biacore SPR
Kd,binding result,Binder
3.6 µM,,B25
3.5 µM,,B26
4.4 µM,,B27
8.7 µM,,B28
3.5 µM,,B29
9.4 µM,,B30
4.9 µM,,B31
2 µM,,B32
2 µM,,B33
,no binding,B34
1.8 µM,,B35
1.8 µM,,B36
29 µM,,B37
24 µM,,B38

# Molecular target: T1, human CD98hc
# Test: SPR (Biacore)
# Remark: another data set of the same source
# Method: Variants that bound with measurable affinity from this round of engineering are shown in Table A12 and the corresponding human binding affinity by surface plasmon resonance (SPR) using a Biacore™ machine are shown in Table 9B. Cell binding of the clones was also tested in HeLa cells for huCD98hc binding and CHO cells as a negative control.
Kd,binding result,Binder
2300 nM,,B39
5200 nM,,B40
670 nM,,B41
2000 nM,,B42
1800 nM,,B43
2600 nM,,B44
,no binding,B45

# — patent US20250145729A1 (DENALI THERAPEUTICS, published 2025)
